Earlier results in paper PMC12026706.

Key:
Assay in all cases: BIAcore SPR
IL-6R (Homo sapiens) = IL-6R (Homo sapiens) (UniProt P08887)
MD2 (Homo sapiens) = MD2 (Homo sapiens) (UniProt Q9Y6Y9)
TLR4 (Homo sapiens) = TLR4 (Homo sapiens) (UniProt O00206)
[1] = biological target: TLR4/MD2 complex (Homo sapiens) (UniProt O00206)
TREM-1 (Homo sapiens) = TREM-1 (Homo sapiens) (UniProt Q9NP99)
TREM-1 (Homo sapiens), sequence (Q9NP99 21-234): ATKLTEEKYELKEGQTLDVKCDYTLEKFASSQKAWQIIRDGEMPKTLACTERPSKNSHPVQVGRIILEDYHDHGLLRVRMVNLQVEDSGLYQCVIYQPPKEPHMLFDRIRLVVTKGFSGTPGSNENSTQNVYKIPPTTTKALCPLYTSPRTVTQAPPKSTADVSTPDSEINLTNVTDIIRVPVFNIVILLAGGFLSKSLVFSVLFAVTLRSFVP

eCIRP, sequence (Q14011 whole entry): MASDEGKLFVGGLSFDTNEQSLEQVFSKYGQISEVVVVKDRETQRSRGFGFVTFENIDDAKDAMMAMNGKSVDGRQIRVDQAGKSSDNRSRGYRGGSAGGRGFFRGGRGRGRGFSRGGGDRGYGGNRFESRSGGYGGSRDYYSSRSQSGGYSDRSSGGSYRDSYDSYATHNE
MD2 (Homo sapiens), sequence (Q9Y6Y9 19-160): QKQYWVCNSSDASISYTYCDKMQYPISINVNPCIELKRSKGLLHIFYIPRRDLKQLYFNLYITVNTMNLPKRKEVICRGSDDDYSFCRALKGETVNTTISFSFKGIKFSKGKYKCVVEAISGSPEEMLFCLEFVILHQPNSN
IL-6R (Homo sapiens), sequence (P08887 20-355): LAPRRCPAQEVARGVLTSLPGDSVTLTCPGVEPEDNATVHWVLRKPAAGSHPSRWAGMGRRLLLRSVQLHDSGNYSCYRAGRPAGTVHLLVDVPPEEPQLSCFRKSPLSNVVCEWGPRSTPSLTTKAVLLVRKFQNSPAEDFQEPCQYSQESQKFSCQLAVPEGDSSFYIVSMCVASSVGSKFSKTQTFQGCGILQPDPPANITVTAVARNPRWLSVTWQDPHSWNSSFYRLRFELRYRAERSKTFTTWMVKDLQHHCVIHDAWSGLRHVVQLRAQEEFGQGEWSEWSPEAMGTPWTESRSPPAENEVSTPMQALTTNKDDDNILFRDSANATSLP
TLR4/MD2 complex (Homo sapiens), sequence (O00206 24-839, chain 1 of 2): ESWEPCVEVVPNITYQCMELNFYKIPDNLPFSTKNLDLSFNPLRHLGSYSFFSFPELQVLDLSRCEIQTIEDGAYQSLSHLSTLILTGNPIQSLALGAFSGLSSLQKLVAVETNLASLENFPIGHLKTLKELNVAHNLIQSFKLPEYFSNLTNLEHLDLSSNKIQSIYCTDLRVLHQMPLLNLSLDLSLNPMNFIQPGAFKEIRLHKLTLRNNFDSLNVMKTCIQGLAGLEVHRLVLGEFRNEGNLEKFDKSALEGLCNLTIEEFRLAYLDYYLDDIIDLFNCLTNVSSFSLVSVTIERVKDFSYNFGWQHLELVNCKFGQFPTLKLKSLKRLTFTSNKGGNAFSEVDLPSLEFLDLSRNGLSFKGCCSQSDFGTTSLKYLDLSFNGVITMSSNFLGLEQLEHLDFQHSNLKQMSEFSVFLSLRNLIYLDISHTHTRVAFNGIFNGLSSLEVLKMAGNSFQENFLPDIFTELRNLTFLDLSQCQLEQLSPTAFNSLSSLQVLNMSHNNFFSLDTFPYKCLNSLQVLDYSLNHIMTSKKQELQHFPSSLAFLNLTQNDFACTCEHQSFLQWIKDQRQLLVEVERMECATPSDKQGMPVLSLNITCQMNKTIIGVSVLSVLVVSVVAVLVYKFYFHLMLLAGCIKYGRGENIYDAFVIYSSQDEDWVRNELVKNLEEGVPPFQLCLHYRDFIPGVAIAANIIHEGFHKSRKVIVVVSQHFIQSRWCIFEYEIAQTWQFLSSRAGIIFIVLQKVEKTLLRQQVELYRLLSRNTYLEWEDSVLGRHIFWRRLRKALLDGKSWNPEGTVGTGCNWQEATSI
TLR4/MD2 complex (Homo sapiens), sequence (Q9Y6Y9 19-160, chain 2 of 2, further chain): as the sequence (Q9Y6Y9 19-160) above
TLR4 (Homo sapiens), sequence (O00206 24-839): as the sequence (O00206 24-839, chain 1 of 2) above

- Kd (IL-6R (Homo sapiens)): 98 nM
- Kd (MD2 (Homo sapiens)): 302 nM
- Kd (TLR4 (Homo sapiens)): 617 nM
- Kd [1]: 239 nM
- Kd (TREM-1 (Homo sapiens)): 117 nM
Substance: eCIRP (from UniProt Q14011)
